Assay [1] concerns the target T1, human IL-33 (R&D Systems, #3625-IL-010/CF) (human, UniProt O95760 112-270).
T1 construct: Commercial recombinant protein; also called hIL-33; interleukin-33
T1 sequence (looked up): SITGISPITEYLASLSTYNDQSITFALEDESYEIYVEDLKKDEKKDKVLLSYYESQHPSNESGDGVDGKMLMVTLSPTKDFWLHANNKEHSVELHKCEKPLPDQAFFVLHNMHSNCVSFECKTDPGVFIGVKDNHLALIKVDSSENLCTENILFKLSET
Nature of the assay: SPR 25C pH7.4, mAb captured. On the procedure: (§1) Equilibrium dissociation constants (KD values) for IL-33 binding to purified anti-IL-33 monoclonal antibodies were determined using a real-time surface plasmon resonance biosensor using a Biacore 4000 instrument. The Biacore sensor surface was first derivatized by amine coupling with either a polyclonal rabbit anti-mouse antibody (GE, # BR-1008-38) or with a monoclonal mouse anti-human Fc antibody (GE, # BR-1008-39) to capture anti-IL-33 monoclonal antibodies expressed with mouse or with human IgG4 constant regions, respectively. All Biacore binding studies were performed in 0.01M ADA pH 7.4, 0.15M NaCl, 3 mM EDTA, and 0.05% v/v Surfactant Tween-20 (ABS-ET running buffer). […] Association of either hIL-33 or MfIL-33-6His to the captured monoclonal antibody was monitored for 4 minutes and their dissociation in ABS-ET running buffer was monitored for 10 minutes. The effect of reduced pH on the binding of each anti-IL-33 antibody to either hIL-33 or MfIL-33-6His was studied using an in-line pH chase assay format in 0.01M ADA pH 6.0, 0.15M NaCl, 3 mM EDTA, and 0.05% v/v Surfactant Tween-20 (ABS-ET pH6 buffer). To achieve this, association of either hIL-33 or MfIL-33-6His to the captured monoclonal antibody was monitored for 4 minutes in ABS-ET running buffer. Following a 30 second dissociation of either hIL-33 or MfIL-33-6His in ABS-ET running buffer, ABS-ET pH6 buffer was injected for 3 minutes, and the analyte dissociation under the low-pH conditions was measured. All the binding kinetic experiments were performed at both 25° C. and 37° C. Kinetic association (kₐ) and dissociation (kd) constants were determined by fitting the real-time sensorgrams to a 1:1 binding model using Scrubber 2.0c curve fitting software. Binding dissociation equilibrium constants (KD) and dissociative half-lives (t½) were calculated from the kinetic rate constants as: […]

The target of assay [2] is T2, cynomolgus monkey IL-33 expressed with a C-terminal hexahistidine tag (cynomolgus monkey).
T2 construct: also called MfIL-33-6His; Mf-IL-33-6His
T2 chain: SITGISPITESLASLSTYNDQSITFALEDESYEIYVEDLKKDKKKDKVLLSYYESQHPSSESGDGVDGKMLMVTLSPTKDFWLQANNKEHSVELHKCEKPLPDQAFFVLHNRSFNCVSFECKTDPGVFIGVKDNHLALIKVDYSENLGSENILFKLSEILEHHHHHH
Kind of assay: SPR 25C pH7.4, mAb captured. As for the experimental part: as §1

The target in assay [3] is T1, human IL-33 (R&D Systems, …). Nature of the assay: SPR 37C pH7.4, mAb captured. On the procedure: as §1
Assay [4] has as its target T2, cynomolgus monkey IL-33 expressed with …. Kind of assay: SPR 37C pH7.4, mAb captured. As for the experimental part: as §1
In assay [5] the target is T1, human IL-33 (R&D Systems, …). Kind of assay: SPR 25C, pH6.0 chase, mAb captured. On the procedure: as §1
The target of assay [6] is T2, cynomolgus monkey IL-33 expressed with …. Kind of assay: SPR 25C, pH6.0 chase, mAb captured. As for the experimental part: as §1
For assay [7], the target named is T3, biotinylated hIL-33 protein (R&D systems, Cat #3625-IL/CF) (human, UniProt O95760 112-270, biotinylated (sites not given)).
T3 construct: Same commercial protein as m21, biotin-labelled; also called biotin-hIL-33
T3 sequence (looked up): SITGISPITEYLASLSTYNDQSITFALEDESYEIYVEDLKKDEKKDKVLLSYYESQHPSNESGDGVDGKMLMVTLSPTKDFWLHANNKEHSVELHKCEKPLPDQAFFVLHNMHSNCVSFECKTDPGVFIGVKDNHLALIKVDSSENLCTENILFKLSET
Nature of the assay: competition ELISA, 30 pM biotin-hIL-33 on coated hST2-hFc. As for the experimental part:
(§2) The ability of anti-IL-33 antibodies to block either human IL-33 (hIL-33) or cynomologus monkey IL-33 binding to the human ST2 receptor was measured using a competition sandwich ELISA. […] The antibody/IL-33 mixtures were incubated for 1 hour at room temperature before they were transferred to the hST2-hFc-coated microtiter plates. After incubating for 1 hour at room temperature, the wells were then washed, and plate-bound biotin-hIL-33 was detected with streptavidin conjugated with horse-radish peroxidase (HRP) (Thermo Scientific, Cat # N200), and plate-bound MfIL-33-6His was detected with a HRP conjugated anti-His monoclonal antibody (Qiagen, #34460). All samples were developed with a TMB solution (BD biosciences, #51-2607KC) to produce a colorimetric reaction and then quenched by acidification with 1M sulfuric acid before measuring absorbance at 450 nm on a Victor X5 plate reader. Data analysis was performed using a sigmoidal dose-response model within Prism™ software. […] Percent blockade was calculated as the ratio of the reduction in signal observed in the presence of antibody relative to the difference between the signal with IL-33 alone and background (signal from HRP-conjugated secondary antibody or streptavidin alone). The absorbance measured for the constant concentration of biotin-hIL-33 or MfIL-33-6His alone is defined as 0% blocking and the absorbance measured for no added IL-33 is defined as 100% blocking.
(In general: ELISA stands for enzyme-linked immunosorbent assay.)

Assay [8] concerns the target T2, cynomolgus monkey IL-33 expressed with …. Kind of assay: competition ELISA, 150 pM MfIL-33-6His on coated hST2-hFc. On the procedure: as §2

Experimental findings from US20160362487A1 (Regeneron, published 2016) are described below.

B1: H4H9629P (antibody, human IgG4, V domains shown)
VH: EVQLVESGGGLVQPGGSLRLSCAASGFTFRSFAMSWVRQAPGKGLELVSDLRTSGGSTYYADSVKGRLTISRDNSKNTLYLQMNSLRAEDTAVYYCAKSHYSTSWFGGFDYWGQGTLVTVSS
VL: DIQMTQSPSSVSASVGDRVTITCRASQGFSSWLAWYQQKPGKAPKLLIYAASSLQSGVPSRFSGSGSGTDFTLTITNLQPEDFATYYCQQANSFPLTFGGGTKVEIK
notes: Human IgG4 Fc (H4H)
For B1, in assay [1], binding was characterised by a dissociation constant (Kd) of 0.29 nM; the koff (as a rule, a measure of how fast the partners let go of each other) stood at 0.000226 s⁻¹; the kon (commonly the rate constant with which the complex forms) is 777000 M⁻¹ s⁻¹; the t½ (usually the time needed for the level to fall by half in the phase considered) amounted to 51 min. In assay [2], the Kd (as a rule, the concentration at which binding is half-saturated) was 23.9 nM; the koff was determined as 0.0135 s⁻¹; the kon turned out to be 562000 M⁻¹ s⁻¹; the t½ was determined as 0.9 min. In assay [3], the dissociation constant Kd was 0.508 nM, the koff is 0.000646 s⁻¹, the kon came to 1.27e+06 M⁻¹ s⁻¹ and the t½ worked out at 18 min. In assay [4], this molecule gave a Kd of 32.4 nM, an off-rate constant (koff) of 0.0347 s⁻¹, an on-rate constant (kon) of 1.07e+06 M⁻¹ s⁻¹ and a t½ of 0.3 min. Besides, in assay [5], the koff worked out at 0.00128 s⁻¹, the t½ was found to be 9 min and the “t½ Ratio (pH 7.4/pH 6.0)” value worked out at 5.7. In assay [6], the off-rate constant (koff) is 0.0358 s⁻¹, the t½ turned out to be 0.3 min and the “t½ Ratio (pH 7.4/pH 6.0)” value was 2.7. Besides, in assay [7], the “% Maximum blocking” value came out at 80% and the IC50 – broadly, the concentration at which inhibition is half-maximal – stood at 0.45 nM.

B2: H4H9633P (antibody, human IgG4, V domains shown)
VH: EVQLVESGGGLVQPGGSLRLSCAASGFTFSSYVMSWVRQAPGKGLEWVSSISGNGGSTNYADSVKGRFTISRDNSKNTLFLEMNSLRAEDTAVYYCAKSLGTTTTFLGFDYWGQGTLVTVSS
VL: DIQMTQSPSSVSASVGDRVTITCRASQGISSWLAWYQQKPGKAPKLLIYAASSLQSGVPSRFSGSGSGTYFTLTISSLQPEDFATYYCQQANSFPLTFGGGTKVEIK
notes: Human IgG4 Fc (H4H)
Take B2: the Kd stood at 0.432 nM in assay [1], 38 nM in assay [2], 0.931 nM in assay [3] and 48.6 nM in assay [4]. Besides, the koff in assay [1] was found to be 0.000283 s⁻¹; in assay [2], 0.00997 s⁻¹; in assay [3], 0.000689 s⁻¹; in assay [4], 0.0227 s⁻¹; in assay [5] it was 0.00081 s⁻¹; in assay [6], 0.00287 s⁻¹. Further, the kon in assay [1] amounted to 656000 M⁻¹ s⁻¹; in assay [2], 262000 M⁻¹ s⁻¹; in assay [3] it was 740000 M⁻¹ s⁻¹; in assay [4] it was 468000 M⁻¹ s⁻¹. Besides, the t½ came to 41 min in assay [1]; 1.2 min in assay [2]; 17 min in assay [3]; 0.5 min in assay [4]; 14 min in assay [5]; 4 min in assay [6]. Further, the “t½ Ratio (pH 7.4/pH 6.0)” value in assay [5] is 2.9; in assay [6], 0.3. Also, in assay [7], the “% Maximum blocking” value turned out to be 66%. Moreover, in assay [7], the half-inhibitory concentration (IC50) was found to be 0.44 nM.

B3: H1M9566N (antibody, mouse IgG1, V domains shown)
VH: EVQLLESGGDLVQPGGSLRLSCAASGFTFSSYAMSWVRQAPGKGLEWVSVISGSGSSTDYADSVKGRFTISRDNSRDTLHLQMNSLRAEDTAVYYCAKTFYYFYGLDVWGQGTTVTVSS
VL: DIQMTQSPSSLSASLRDRVTITCRASQGISNYLAWYQQKPGKVPKVLIYAASTLQSGVPSRFSGSGSGTVFTLTISSLQTEDVATYYCQKYSSAPFTFGPGTKVDIK
notes: Human variable domains, mouse IgG1 Fc (H1M)
On to B3, for which the kon in assay [1] is 127000 M⁻¹ s⁻¹; in assay [2], 293000 M⁻¹ s⁻¹; in assay [3], 166000 M⁻¹ s⁻¹; in assay [4], 399000 M⁻¹ s⁻¹. Also, the Kd in assay [2] was 0.333 nM; in assay [3], 1.7 nM; in assay [4], 1 nM. Further, the koff in assay [2] is 9.75e-05 s⁻¹; in assay [3], 0.000283 s⁻¹; in assay [4] it was 0.0004 s⁻¹; in assay [5] it was 0.00011 s⁻¹; in assay [6] it was 0.000126 s⁻¹. Besides, the t½ was 119 min in assay [2]; 41 min in assay [3]; 29 min in assay [4]; 105 min in assay [5]; 91 min in assay [6]. The “t½ Ratio (pH 7.4/pH 6.0)” value turned out to be 11 in assay [5] and 1.3 in assay [6]. The “% Maximum blocking” value in assay [8] was determined as 41%; in assay [7], 69%. The IC50 was determined as 0.22 nM in assay [8] and 0.32 nM in assay [7].

B4: H1M9568N (antibody, mouse IgG1, V domains shown)
VH: QVLLVQSGAEVKKPGATVKVSCKASGSTFTGYYMHWVRQAPGQGLEWMGWINPNNGGTNYAQKFQGRVTMTRDTSISTAYMELSRLRSDDTAVYYCARELRYNWKSWGQGTLVTVSS
VL: EIVLTQSPGTLSLSPGERVTLSCRASQSVGRPYLAWYQQIPGQAPRLLIYGASSRATDIPDRFSGNGSGTDFTLTISRLEPEDFAVYYCQQYDNSPYTFGQGTRLEIK
notes: as for B3
Regarding B4, the Kd in assay [1] stood at 0.184 nM; in assay [2] it was 1.07 nM; in assay [3], 1.43 nM; in assay [4] it was 4.46 nM. Besides, the koff in assay [1] is 0.00013 s⁻¹; in assay [2], 0.000261 s⁻¹; in assay [3] it was 0.000961 s⁻¹; in assay [4], 0.00173 s⁻¹; in assay [5], 0.000178 s⁻¹; in assay [6], 0.000302 s⁻¹. For the same molecule, the on-rate (kon) in assay [1] turned out to be 702000 M⁻¹ s⁻¹; in assay [2] it was 244000 M⁻¹ s⁻¹; in assay [3], 672000 M⁻¹ s⁻¹; in assay [4], 389000 M⁻¹ s⁻¹. Further, the t½ is 89 min in assay [1]; 44 min in assay [2]; 12 min in assay [3]; 7 min in assay [4]; 65 min in assay [5]; 38 min in assay [6]. The “t½ Ratio (pH 7.4/pH 6.0)” value in assay [5] is 1.4; in assay [6] it was 1.2. Further, the “% Maximum blocking” value in assay [8] came to 38%; in assay [7] it was 55%. The IC50 came out at 0.84 nM in assay [8] and 0.19 nM in assay [7].

B5: H1M9565N (antibody, mouse IgG1, V domains shown)
VH: QVTLKESGPVLVKPTESLTLTCSVSGFSLSNVRMGVSWIRQSPGKALEWLAHIFSNDEKSYTTSLKTRLTISKDTSRSQVVLTMTDMDPGDTATYYCARIRNLAFNYWGQGTLVTVSS
VL: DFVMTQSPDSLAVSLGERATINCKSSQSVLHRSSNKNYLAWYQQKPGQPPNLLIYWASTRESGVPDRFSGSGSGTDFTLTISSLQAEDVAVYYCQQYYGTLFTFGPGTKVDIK
notes: as for B3
As to B5, in assay [2], the Kd was 1.77 nM, the koff came out at 7.2e-05 s⁻¹, the kon came to 40600 M⁻¹ s⁻¹ and the t½ is 160 min. Also, in assay [4], the Kd is 2.59 nM, the koff came to 0.000202 s⁻¹, the association rate constant (kon) came to 78200 M⁻¹ s⁻¹ and the t½ turned out to be 57 min. In addition, in assay [6], the koff was 0.000143 s⁻¹, the t½ was determined as 81 min and the “t½ Ratio (pH 7.4/pH 6.0)” value amounted to 2. For the same molecule, in assay [8], the “% Maximum blocking” value was 86% and the IC50 came to 12 nM. Besides, in assay [7], the “% Maximum blocking” value was 68% and the IC50 was 22 nM.
